From patent publication US20170056486A1

Target: HLA-A*24 (human)
Assay: UV-exchange ELISA (anti-b2m); yield 50%-75%

Binder	peptide exchange yield [%]
GYNPNRVFF	50 to 75
RYSTFSEIF	50 to 75
QYFTGNPLF	50 to 75
NYIPVKNGKQF	50 to 75
IYLSDLTYI	50 to 75
VYEKNGYIYF	50 to 75
RYGFYYVEF	50 to 75
IYSFHTLSF	50 to 75
LYSELNKWSF	50 to 75
PYFFANQEF	50 to 75
VYPFENFEF	50 to 75
RYVEGIVSL	50 to 75
VYALKVRTI	50 to 75
KYLMELTLI	50 to 75
KYLNSVQYI	50 to 75
IYQFVADSF	50 to 75
VFSRDFGLLVF	50 to 75
DYIPASGFALF	50 to 75
LYSPVPFTL	50 to 75
LYSELTETL	50 to 75
VFPRLHNVLF	50 to 75
RYLNKSFVL	50 to 75
EYLSTCSKL	50 to 75
RYGLPAAWSTF	50 to 75
KYIFQLNEI	50 to 75

Binder	peptide exchange yield [%]
LYSDAFKFIVF	50 to 75
NYITGKGDVF	50 to 75
NYEDHFPLL	50 to 75
IYQYVADNF	50 to 75
EYLDRIGQLFF	50 to 75
TYIPVGLGRLL	50 to 75
KYPDIVQQF	50 to 75
IYPEWPVVFF	50 to 75
RYLEAALRL	50 to 75
TYPDGTYTGRIF	50 to 75
SYNGHLTIWF	50 to 75
NYSSAVQKF	50 to 75
YYLSDSPLL	50 to 75
PYLQDVPRI	50 to 75
KYLQVVGMF	50 to 75
QYLTAAALHNL	50 to 75
NYYERIHAL	50 to 75
SYPKIIEEF	50 to 75
IYRFITERF	50 to 75
SYLNHLNNL	50 to 75
SYLKAVFNL	50 to 75
EYQARIPEF	50 to 75
EYFTPLLSGQF	50 to 75
LYLENNAQTQF	50 to 75
RYGDGGSSF	50 to 75

Binder	peptide exchange yield [%]
AYIKGGWIL	50 to 75
IYEETRGVL	50 to 75
IYNETITDLL	50 to 75
FYVNVKEQF	50 to 75
LYLAFPLAF	50 to 75
FYINGQYQF	50 to 75
HYVPATKVF	50 to 75
VYFKAGLDVF	50 to 75
VYPVVLNQI	50 to 75
IFGIFPNQF	50 to 75
VFIHHLPQF	50 to 75
KYLEDMKTYF	50 to 75
VYIESRIGTSTSF	50 to 75
VYQSLSNSL	50 to 75
KYFPYLVVI	50 to 75
PYLVVIHTL	50 to 75
VYPPYLNYL	50 to 75
VYRVYVTTF	50 to 75
IYNFVESKL	50 to 75
IYNETVRDLL	50 to 75
GYKTFFNEF	50 to 75
VYVQILQKL	50 to 75
TYTNTLERL	50 to 75
AYIPTPIYF	50 to 75
TYGMVMVTF	50 to 75
